Data taken from patent publication US20190185561A1 (Seagen, published 2019).
Substitutions are numbered along the chain they refer to. Numbers in names are those of the source. Blank lines part the entries; values can stand above or below the molecule they belong to.

Experiments:
[1] = target: murine CD47 on murine CD47 positive tumor cells (mouse) (UniProt Q61735); assay: saturation binding by flow cytometry on HT-2 (mouse T cells)
[2] = target: murine CD47 on murine CD47 positive tumor cells (mouse) (UniProt Q61735); assay: saturation binding by flow cytometry on HT-2 (mouse T cells); range printed beside the two rising curves (mIAP and Cleaved Vel), lower end
[3] = target: murine CD47 on murine CD47 positive tumor cells (mouse) (UniProt Q61735); assay: saturation binding by flow cytometry on HT-2 (mouse T cells); range printed beside the two rising curves (mIAP and Cleaved Vel), upper end
[4] = target: T1, human CD47 expressed on the cell surface (human, UniProt Q08722 19-323); assay: saturation binding, flow cytometry, HCT116 cells; HCT116 cells
T1 construct: whole, on cells; also called CD47 on SW780, human red blood cells, HT1080, HCT116, Raji, L450cy and patient blood cells

[5] = target: T1, human CD47 expressed on the cell surface; assay: saturation binding, flow cytometry, Raji cells
[6] = target: T1, human CD47 expressed on the cell surface; assay: saturation binding, flow cytometry, SW780 cells
[7] = target: T1, human CD47 expressed on the cell surface; assay: saturation binding, flow cytometry, HCT116 cells
[8] = target: T1, human CD47 expressed on the cell surface; assay: saturation binding, flow cytometry, HT1080 cells
[9] = target: T1, human CD47 expressed on the cell surface; assay: saturating cellular FACS on L450cy lymphoma cells
[10] = target: T2, Soluble recombinant human CD47-Fc (R&D Systems) (human, UniProt Q08722 19-139); assay: saturating ELISA on plates coated with human CD47; column head 'Average EC50 (nM)'
T2 construct: Bought reagent; also called rhCD47; human CD47 (plate-coated); not shown: Fc part of the bought fusion protein

[11] = target: T2, Soluble recombinant human CD47-Fc (R&D …); assay: hCD47 ELISA, absorbance at 450 nm against antibody concentration
[12] = target: T1, human CD47 expressed on the cell surface; assay: saturation binding, flow cytometry, SW780 cells; remark: listed apart in the source
[13] = target: T2, Soluble recombinant human CD47-Fc (R&D …); assay: saturation binding ELISA on rhCD47
[14] = target: T1, human CD47 expressed on the cell surface; assay: saturation binding, flow cytometry, SW780 cells; remark: listed apart in the source
[15] = target: T1, human CD47 expressed on the cell surface; assay: saturation binding, flow cytometry, SW780 cells; remark: listed apart in the source
[16] = target: T1, human CD47 expressed on the cell surface; assay: saturation binding, flow cytometry, human red blood cells
[17] = target: T1, human CD47 expressed on the cell surface; assay: as above; remark: listed apart in the source
[18] = target: T1, human CD47 expressed on the cell surface; assay: saturation binding, flow cytometry, SW780 cells; SW780 human bladder cancer cells

Sequence of murine CD47 on murine CD47 positive tumor cells (mouse) (Q61735 19-303): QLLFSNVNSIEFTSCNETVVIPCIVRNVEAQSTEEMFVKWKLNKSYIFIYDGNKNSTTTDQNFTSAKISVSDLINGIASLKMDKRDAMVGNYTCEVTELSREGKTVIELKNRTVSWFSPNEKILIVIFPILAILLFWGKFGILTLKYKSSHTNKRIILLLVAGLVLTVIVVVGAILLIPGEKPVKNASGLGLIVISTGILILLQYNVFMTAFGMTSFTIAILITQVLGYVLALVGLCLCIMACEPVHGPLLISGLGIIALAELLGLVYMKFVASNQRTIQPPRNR

B1: Ab47 bearing the A2B1 coiled coil masking domain (antibody)
VH: GASTSVDELQAEVDQLQDENYALKTKVAQLRKKVEKLSEGGGGGPLGVRGGGGSEVQLVESGGGLVQPGGSLRLSCAASGFTFSGYGMSWVRQAPGKGLEWVATITSGGTYTYYPDSVKGRFTISRDNAKNSLYLQMNSLRAEDTAVYYCARSLAGNAMDYWGQGTLVTVSS
VL: GASTTVAQLRERVKTLRAQNYELESEVQRLREQVAQLASGGGGGPLGVRGGGGSEIVLTQSPATLSLSPGERATLSCRASQTISDYLHWYQQKPGQAPRLLIKFASQSISGIPARFSGSGSGTDFTLTISSLEPEDFAVYYCQNGHGFPRTFGQGTKVEIKR
notes: IgG1
Kd [4]: 1780 nM

B2: Ab47 bearing the A4B4 coiled coil masking domain (antibody)
VH: GKIAALKQKIAALKYKNAALKKKIAALKQGGGGGPLGVRGGGGSEVQLVESGGGLVQPGGSLRLSCAASGFTFSGYGMSWVRQAPGKGLEWVATITSGGTYTYYPDSVKGRFTISRDNAKNSLYLQMNSLRAEDTAVYYCARSLAGNAMDYWGQGTLVTVSS
VL: GEIAALEQEIAALEKENAALEWEIAALEQGGGGGPLGVRGGGGSEIVLTQSPATLSLSPGERATLSCRASQTISDYLHWYQQKPGQAPRLLIKFASQSISGIPARFSGSGSGTDFTLTISSLEPEDFAVYYCQNGHGFPRTFGQGTKVEIKR
notes: IgG1
Kd [5]: 466 nM | Kd [6]: 1680 nM | Kd [7]: 1120 nM | Kd [8]: 1180 nM

B4: hB6H12.4 (antibody, V domains shown)
VH: EVQLLESGGGLVQPGGSLRLSCAASGFTFSGYGMSWVRQAPGKRLEWVATITSGGTYTYYPDSVKGRFTISRDNSKNTLYLQMNSLRAEDTAIYFCARSLAGNAMDYWGQGTLVTVSS
VL: DIQMTQSPSSLSASVGDRVTLTCRASQTISNYLAWYQQKPGKVPKLLIKFASTLQSGVPSRFSGSGSGSDFTLTISSLQPEDVATYYCQNGHGFPRTFGQGTKLEIKR
notes: also called hvH1/hvK4; antibody 4 (bin A)
Kd [9]: 0.9 nM | EC50 (read off the curve) [11]: ~1 nM | EC50 [10]: 24 nM

B5: Cleaved Vel-IPV-hB6H12.4 (antibody, V domains shown)
VH: B4 VH
VL: B4 VL
notes: MMP2-cleaved; IgG1
Kd [12]: 9.2 nM

B6: hB6H12.2 (antibody, V domains shown)
VH: B4 VH
VL: EIVMTQSPDFQSVTPKEKVTLTCRASQTISDYLHWYQQKPDQSPKLLIKFASQSISGVPSRFSGSGSGTDFTLTINSLEAEDAATYYCQNGHGFPRTFGQGTKLEIKR
notes: also called hvH1/hvK2; antibody 2 (bin A)
Kd [9]: 0.9 nM | EC50 [10]: 30 nM

B7: Ab47 (antibody, V domains shown)
VH: B4 VH with L5V, R44G, S75A, T78S, I93V, F95Y
VL: EIVLTQSPATLSLSPGERATLSCRASQTISDYLHWYQQKPGQAPRLLIKFASQSISGIPARFSGSGSGTDFTLTISSLEPEDFAVYYCQNGHGFPRTFGQGTKVEIKR
notes: Humanized IgG1; also called alternatively humanized antibody Ab47; humanized IgG1 hB6H12 Ab47
Kd [13]: 1 nM | Kd [5]: 3.3 nM | Kd [14]: 8 nM | Kd [15]: 6.8 nM | Kd [6]: 9.6 nM | Kd [7]: 7.8 nM | Kd [8]: 21 nM | Kd [9]: 0.5 nM | Kd [16]: 26.5 nM | Kd [17]: 12.1 nM | EC50 (read off the curve) [11]: ~1 nM | EC50 [10]: 16 nM

B8: Ab47 G91A (antibody, name in Kabat numbering, V domains shown)
VH: B4 VH with L5V, R44G, S75A, T78S, I93V, F95Y
VL: B7 VL with G91A
notes: built from the Ab47 light chain variable region with G91A; IgG1; also called Ab47 variant bearing a G91A mutation in LCDR3
Kd [15]: 19.8 nM | Kd [17]: 100 nM

B10: Cleaved Vel-IPV-hB6H12.19 (antibody, V domains shown)
VH: B4 VH with L5V, R44G, P61A, M83I, I93V, F95Y
VL: B6 VL with T69S
notes: MMP2-cleaved; IgG1
Kd [12]: 26.6 nM

B12: hB6H12.1 (antibody, V domains shown)
VH: B4 VH
VL: B6 VL with T85V
notes: also called hvH1/hvK1; antibody 1 (bin A)
Kd [9]: 0.9 nM | EC50 [10]: 30 nM

B15: Cleaved Vel-IPV-hB6H12.20 (antibody, V domains shown)
VH: B4 VH with L5V, R44G, P61A, M83I, I93V, F95Y
VL: B4 VL
notes: MMP2-cleaved; IgG1
Kd [12]: 30.2 nM

Other lines, results leading:

EC50 (read off the curve) [1]: 10 to 20 nM | Kd [2]: > 7.5 nM | Kd [3]: < 15 nM
Molecule: mIAP301 (antibody)

Kd [9]: 1.2 nM | EC50 [10]: 37 nM
B3: mB6H12 (antibody, V domains shown)
VH: EVQLVESGGDLVKPGGSLKLSCAASGFTFSGYGMSWVRQTPDKRLEWVATITSGGTYTYYPDSVKGRFTISRDNAKNTLYLQIDSLKSEDTAIYFCARSLAGNAMDYWGQGTSVTVSS
VL: DIVMTQSPATLSVTPGDRVSLSCRASQTISDYLHWYQQKSHESPRLLIKFASQSISGIPSRFSGSGSGSDFTLSINSVEPEDVGVYYCQNGHGFPRTFGGGTKLEIKR
notes: Murine parental antibody; also called murine B6H12; mouse B6H12

Kd [13]: 2.7 nM | Kd [18]: 62.3 nM
B9: hB6H12.3 G91A (antibody, V domains shown)
VH: B4 VH
VL: B6 VL with T69S, G91A
notes: IgG1; also called hB6H12.3 (deamidation mutant); hvH1/hvK3 G91A

Kd [9]: 1.8 nM | EC50 (read off the curve) [11]: ~4 nM | EC50 [10]: 56 nM
B11: hB6H12.20 (antibody, V domains shown)
VH: B4 VH with L5V, R44G, P61A, M83I, I93V, F95Y
VL: B4 VL
notes: also called hvH5/hvK4; antibody 20 (bin B)

Kd [9]: 1 nM | EC50 [10]: 43 nM
B13: hB6H12.17 (antibody, V domains shown)
VH: B4 VH with L5V, R44G, P61A, M83I, I93V, F95Y
VL: B6 VL with T85V
notes: also called hvH5/hvK1; antibody 17 (bin B)

Kd [9]: 1.3 nM | EC50 (read off the curve) [11]: ~3 nM | EC50 [10]: 55 nM
B14: hB6H12.19 (antibody, V domains shown)
VH: B4 VH with L5V, R44G, P61A, M83I, I93V, F95Y
VL: B6 VL with T69S
notes: also called hvH5/hvK3; antibody 19 (bin B)

Kd [9]: 1.1 nM | EC50 [10]: 38 nM
B16: hB6H12.18 (antibody, V domains shown)
VH: B4 VH with L5V, R44G, P61A, M83I, I93V, F95Y
VL: B6 VL
notes: also called hvH5/hvK2; antibody 18 (bin B)
